# T1: Factor XIIa (Homo sapiens, UniProt P00748)
# T1 construct: The resulting α-FXIIa has a heavy chain of 50 kDa, connected to a light chain of 28 kDa
# T1 sequence (P00748 20-372 limits assumed): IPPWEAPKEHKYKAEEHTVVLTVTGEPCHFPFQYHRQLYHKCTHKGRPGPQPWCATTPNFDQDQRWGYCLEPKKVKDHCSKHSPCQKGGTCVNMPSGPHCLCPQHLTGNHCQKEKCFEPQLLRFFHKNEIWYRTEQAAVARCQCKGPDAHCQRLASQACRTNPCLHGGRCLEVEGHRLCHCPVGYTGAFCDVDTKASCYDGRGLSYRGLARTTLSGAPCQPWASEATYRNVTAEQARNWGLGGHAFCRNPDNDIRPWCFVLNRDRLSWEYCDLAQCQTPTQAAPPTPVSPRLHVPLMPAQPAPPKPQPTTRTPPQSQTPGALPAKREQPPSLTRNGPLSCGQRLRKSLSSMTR
# T1 sequence (P00748 373-615 limits assumed): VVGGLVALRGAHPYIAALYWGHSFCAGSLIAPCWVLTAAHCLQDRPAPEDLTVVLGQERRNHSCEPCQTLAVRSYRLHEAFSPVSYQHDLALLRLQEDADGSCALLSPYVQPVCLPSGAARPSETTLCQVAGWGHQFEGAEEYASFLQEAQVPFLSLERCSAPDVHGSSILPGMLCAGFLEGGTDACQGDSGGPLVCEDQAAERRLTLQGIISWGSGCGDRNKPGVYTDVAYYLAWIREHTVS
# T2: FXIIa (Homo sapiens, UniProt P00748)
# T2 construct: The resulting α-FXIIa has a heavy chain of 50 kDa, connected to a light chain of 28 kDa
# T2 sequence (P00748 20-372 limits assumed): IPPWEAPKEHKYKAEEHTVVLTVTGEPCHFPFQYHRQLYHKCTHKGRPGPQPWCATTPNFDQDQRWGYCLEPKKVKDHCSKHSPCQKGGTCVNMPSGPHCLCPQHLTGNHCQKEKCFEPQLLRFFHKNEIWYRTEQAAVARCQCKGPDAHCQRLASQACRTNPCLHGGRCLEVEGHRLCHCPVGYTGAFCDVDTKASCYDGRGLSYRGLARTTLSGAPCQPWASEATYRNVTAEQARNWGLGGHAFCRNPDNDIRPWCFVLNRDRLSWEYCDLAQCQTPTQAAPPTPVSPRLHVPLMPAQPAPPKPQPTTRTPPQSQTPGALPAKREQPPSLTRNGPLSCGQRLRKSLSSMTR
# T2 sequence (P00748 373-615 limits assumed): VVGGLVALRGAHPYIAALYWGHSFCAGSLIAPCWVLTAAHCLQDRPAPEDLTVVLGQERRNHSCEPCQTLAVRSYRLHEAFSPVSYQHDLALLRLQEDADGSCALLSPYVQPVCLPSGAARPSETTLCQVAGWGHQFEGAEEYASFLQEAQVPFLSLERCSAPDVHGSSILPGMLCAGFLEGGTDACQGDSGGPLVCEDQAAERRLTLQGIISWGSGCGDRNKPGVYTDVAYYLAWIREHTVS
# How the values were obtained:
# [1] = rodents; pharmacological therapeutic active dose; cited from earlier work
# Factor XIIa = biological target: T1, Factor XIIa; settings: cited from earlier work
# plasmin = plasmin (Homo sapiens, UniProt P00747); settings: cited from earlier work
# Chain of plasmin (P00747 97-580 limits assumed, species assumed): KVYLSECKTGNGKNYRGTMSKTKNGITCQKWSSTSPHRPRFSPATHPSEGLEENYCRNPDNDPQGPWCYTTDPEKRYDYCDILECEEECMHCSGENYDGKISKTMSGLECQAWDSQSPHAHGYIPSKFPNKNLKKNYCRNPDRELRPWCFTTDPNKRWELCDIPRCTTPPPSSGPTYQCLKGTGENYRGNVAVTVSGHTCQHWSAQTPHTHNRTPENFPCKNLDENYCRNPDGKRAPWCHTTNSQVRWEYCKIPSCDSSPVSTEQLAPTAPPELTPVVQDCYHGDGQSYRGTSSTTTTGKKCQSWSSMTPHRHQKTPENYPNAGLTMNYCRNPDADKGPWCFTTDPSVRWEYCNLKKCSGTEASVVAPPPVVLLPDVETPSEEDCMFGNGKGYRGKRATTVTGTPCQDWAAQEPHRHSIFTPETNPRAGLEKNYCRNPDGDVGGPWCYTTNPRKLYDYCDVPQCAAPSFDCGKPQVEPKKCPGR
# Chain of plasmin (P00747 581-810 limits assumed, species assumed): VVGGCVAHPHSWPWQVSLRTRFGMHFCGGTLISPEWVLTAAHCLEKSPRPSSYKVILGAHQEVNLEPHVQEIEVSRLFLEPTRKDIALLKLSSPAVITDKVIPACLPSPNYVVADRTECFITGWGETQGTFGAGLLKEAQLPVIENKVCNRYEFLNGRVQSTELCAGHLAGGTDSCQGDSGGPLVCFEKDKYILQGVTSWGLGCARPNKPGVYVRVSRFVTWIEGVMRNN
# Factor XIa = Factor XIa (Homo sapiens, UniProt P03951); settings: cited from earlier work
# Chain of Factor XIa (P03951 19-387 limits assumed): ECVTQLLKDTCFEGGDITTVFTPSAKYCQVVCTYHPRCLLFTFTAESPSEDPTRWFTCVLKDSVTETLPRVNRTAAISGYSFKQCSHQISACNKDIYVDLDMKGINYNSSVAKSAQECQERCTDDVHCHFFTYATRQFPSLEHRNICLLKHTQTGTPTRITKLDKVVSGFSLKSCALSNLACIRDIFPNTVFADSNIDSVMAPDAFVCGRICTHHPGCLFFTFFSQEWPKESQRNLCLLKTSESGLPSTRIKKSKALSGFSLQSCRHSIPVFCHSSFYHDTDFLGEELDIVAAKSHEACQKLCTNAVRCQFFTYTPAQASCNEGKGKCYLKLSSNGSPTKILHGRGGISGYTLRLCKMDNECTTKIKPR
# Chain of Factor XIa (P03951 388-625 limits assumed): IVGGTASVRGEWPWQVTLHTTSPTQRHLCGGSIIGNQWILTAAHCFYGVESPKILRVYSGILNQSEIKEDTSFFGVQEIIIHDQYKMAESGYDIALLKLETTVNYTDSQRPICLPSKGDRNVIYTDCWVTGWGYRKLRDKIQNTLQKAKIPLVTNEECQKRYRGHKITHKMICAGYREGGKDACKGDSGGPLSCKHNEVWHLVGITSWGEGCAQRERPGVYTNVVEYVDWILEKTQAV
# [2] = test system: neutrophils isolated from bone marrow of femurs of mice; assay: Neutrophil activation following incubation with ATP (flow cytometry); format: cell-based, mice (C57BL/6)
# Procedure: Neutrophils were isolated from the bone marrow of femurs of mice (C57BL/6) as previously described (Hu 2012), using FR-1-coupled magnetic beads (anti-Ly6G Microbead Kit, Miltenyi Biotec). For activation with TFNα, cells were harvested, centrifugated and incubated during 30 min with or without 2 ng/ml of TNFα in Hanks solution (Gibco). Next, neutrophils were incubated with Ir-CPI (0.65 or 2 μM) in Hanks solution (1 h at 37° C.). For activation with ATP, cells were harvested, centrifugated and incubated with ATP 10 μM and Ir-CPI (0.65 or 2 μM) in Hanks solution (1 h at 37° C.). After washing of cells, expression of CD11b, activated CD11b or Ly6G was assessed by flow cytometry (Beckman Coulter Gallios). Antibodies used for neutrophil identification and activation analyses were IRR IgG1-FITC (irrelevant antibody), anti-CD45-APC, anti-Ly6G-PE and anti-CD11b-FITC or Alexa Fluor 647 anti-activated CD11b-. Analysis of results was performed using the Kaluza software (Beckman Coulter).
# Percentage of activation marker expression was presented as mean±SEM (n=3independent experiments for TNFα activation and n=2 independent experiments for ATP activation). For experiments with TNFα activation, a one-way ANOVA followed by a
# Neutrophils isolated from bone marrow of femurs of mice were submitted to different in vitro experimental conditions (untreated control or incubation with Ir-CPI, and with or without ATP) to assess the effect of Ir-CPI on their activation status. The activation status was assessed by analyzing the percentage of CD11b, activated CD11b and Ly6G expressions at the surface of neutrophils (FIG. 17).
# [3] = Tail bleeding time assessment; format: in vivo, mice (C57BL/6JRj)
# Procedure: Tail bleeding time assessment under NaCl or Ir-CPI treatment (Low or High dose) was performed as previously described (Mezouar et al., 2015) on anesthetized wild-type (i.e. cancer-free) or cancer-bearing mice. Briefly, a 1- to 3-mm portion of the distal tail was removed from mice; the tail was immersed in isotonic saline (37° C.), and the time to complete cessation of blood flow recorded. The bleeding time was monitored for a maximum of 10 min.
# clot fibrinolysis = settings: dose-dependent; in a lesser extend than aPTT; cited from earlier work
# FXIIa = biological target: T2, FXIIa; settings: cited from earlier work
# [4] = Quantification of Ir-CPI in plasma samples by ELISA; format: in vivo, mice (C57BL/6JRj); settings: iv bolus 20.5 mg/kg + infusion 3.7 mg/kg/h; after about 150 min of procedure; Mean±SEM, n=5
# Procedure: Plasma (around 250 μL) was centrifuged at 18-22° C./at 2500 g during 15 min. Plasma was centrifuged again (18-22° C. at 2500 g during 15 min) and was stored into a polypropylene tube at −80° C. Plasma samples were later sent frozen on dry ice for dosage of the circulating concentration of Ir-CPI by ELISA.
# The quantification of circulating Ir-CPI in the plasma samples was assessed by ELISA at Eurofins, ADME Bioanalyses (Vergèze, France). A sandwich immuno-assay was carried out using two anti-Ir-CPI antibodies. The capture monoclonal antibody (Ir-CPI3) was coated to microtitration plates (Nunc, ThermoFischer Scientific, USA) at 1 μg/mL overnight at 4° C. in PBS (Hyclone, USA). Wells were blocked with PBS BSA 2% (Sigma-Aldrich, USA) at room temperature (RT) for 1 h and were then washed. Samples were added into the wells and incubated for 2 h at RT. The biotinylated detection antibody (L39-biotin), previously diluted in PBS BSA 1% (Sigma-Aldrich, USA), was added to the wells and complemented with streptavidin-HRP (REF) diluted in PBS BSA 1%. TMB SureBlue (KPL, REF) and H2SO4 IN (VWR, USA) were used for spectrophotometric detection (450 nm).
molecule,measurement,setting,value
"Ir-CPI: Ixodes ricinus salivary gland polypeptide, contact phase inhibitor, MW=7660 Da; sequence SEQ ID NO: 1 or SEQ ID NO: 2 (protein) ANHKGRGRPAKCKLPPDDGPCRARIPSYYFDRKTKTCKEFMYGGCEGNENNFENITTCQEECRAKKV",bleeding,[1],does not increase bleeding
same,activation of Factor XI by Factor XIIa,Factor XIIa,inhibit activation
same,activation of PK by Factor XIIa,Factor XIIa,inhibit activation
same,binding to plasmin,plasmin,binds
same,activation of Factor XII by Factor XIa,Factor XIa,inhibit activation
same,expression of Ly6G at the surface of neutrophils,"[2]; ATP 10 μM, Ir-CPI 0.65 or 2 μM (FIG. 17A)",decreased
same,expression of activated CD11b at the surface of neutrophils,"[2]; ATP 10 μM, Ir-CPI 0.65 or 2 μM (FIG. 17C)",significantly decreased
same,expression of CD11b,"[2]; ATP experiment (FIG. 17B), Ir-CPI 0.65 and 2 μM",no effect
same,tail bleeding time compared to NaCl-treated mice,"[3]; High dose (20.5 mg/kg + 3.7 mg/kg/h), cancer-bearing mice",No significant effect
same,tail bleeding time compared to NaCl-treated mice,"[3]; High dose (20.5 mg/kg + 3.7 mg/kg/h), cancer-free mice",No significant effect
same,tail bleeding time compared to NaCl-treated mice,"[3]; Low dose (10.3 mg/kg + 1.9 mg/kg/h), cancer-bearing mice",No significant effect
same,tail bleeding time compared to NaCl-treated mice,"[3]; Low dose (10.3 mg/kg + 1.9 mg/kg/h), cancer-free mice",No significant effect
same,clot fibrinolysis time,clot fibrinolysis,prolongs
same,binding to FXIIa,FXIIa,binds
same,Mean plasma concentration,[4],6480 ± 1020 ng/mL

# From patent US20250295734A1, “ANTICOAGULANT PROTEINS AND THEIR USE FOR TREATING DISEASES ASSOCIATED WITH THE ACTIVATION OF NEUTROPHILS” (BIOXODES, priority 2018, published 2025)
